Source: US20250032576A1, “CNP Therapy” (BIOMARIN PHARMACEUTICAL INC., priority 2021, published 2025)
Substitutions are numbered along the chain they refer to. Several values for one entry are separate records, joined by “and”; a condition that tells them apart may be missing. Equal entries are not always repeated. Where two headings read alike, the source gives them in different places. No end group written: not given here.

Tests used:
[1] = system: lumbar vertebral nppc expression, plasma NTproCNP; settings: cited from earlier work
plasma NTproCNP = settings: short non Ach children starting daily HGH, day 21; cited from earlier work
[2] = target: NPR2 variant Ala48Ser (human) (UniProt P20594); assay: cell-based or functional assay
[3] = target: NPR2 variant Ala59Thr (human) (UniProt P20594); assay: cell-based or functional assay
[4] = target: NPR2 variant Arg263His (human) (UniProt P20594); assay: cell-based or functional assay
[5] = target: NPR2 variant Arg562Gln (human) (UniProt P20594); assay: cell-based or functional assay
[6] = target: NPR2 variant Arg601Ser (human) (UniProt P20594); assay: cell-based or functional assay
[7] = target: NPR2 variant Arg776Trp (human) (UniProt P20594); assay: cell-based or functional assay
[8] = target: NPR2 variant Arg957Cys (human) (UniProt P20594); assay: cell-based or functional assay
[9] = target: NPR2 variant Glu359Ala (human) (UniProt P20594); assay: cell-based or functional assay
[10] = target: NPR2 variant Glu389Asp (human) (UniProt P20594); assay: cell-based or functional assay
[11] = target: NPR2 variant Glu727Gln (human) (UniProt P20594); assay: cell-based or functional assay
[12] = target: NPR2 variant Glu77Lys (human) (UniProt P20594); assay: cell-based or functional assay
[13] = target: NPR2 variant Gly209Val (human) (UniProt P20594); assay: cell-based or functional assay
[14] = target: NPR2 variant Gly21Arg (human) (UniProt P20594); assay: cell-based or functional assay
[15] = target: NPR2 variant Gly917Arg (human) (UniProt P20594); assay: cell-based or functional assay
[16] = target: NPR2 variant HIS508Asp (human) (UniProt P20594); assay: cell-based or functional assay
[17] = target: NPR2 variant His552Arg (human) (UniProt P20594); assay: cell-based or functional assay
[18] = target: NPR2 variant Ile494Ser (human) (UniProt P20594); assay: cell-based or functional assay
[19] = target: NPR2 variant Leu1009Val (human) (UniProt P20594); assay: cell-based or functional assay
[20] = target: NPR2 variant Leu956Gln (human) (UniProt P20594); assay: cell-based or functional assay
[21] = target: NPR2 variant Lys1006Thr (human) (UniProt P20594); assay: cell-based or functional assay
[22] = target: NPR2 variant Lys367Glu (human) (UniProt P20594); assay: cell-based or functional assay
[23] = target: NPR2 variant Lys480Asn (human) (UniProt P20594); assay: cell-based or functional assay
[24] = target: NPR2 variant Lys629Arg (human) (UniProt P20594); assay: cell-based or functional assay
[25] = target: NPR2 variant Pro301Ser (human) (UniProt P20594); assay: cell-based or functional assay
[26] = target: NPR2 variant Ser522Pro (human) (UniProt P20594); assay: cell-based or functional assay
[27] = target: NPR2 variant Thr297Met (human) (UniProt P20594); assay: cell-based or functional assay
[28] = target: NPR2 variant Thr377Asn (human) (UniProt P20594); assay: cell-based or functional assay
[29] = target: NPR2 variant Thr907Met (human) (UniProt P20594); assay: cell-based or functional assay
[30] = target: NPR2 variant Trp42Arg (human) (UniProt P20594); assay: cell-based or functional assay
[31] = target: NPR2 variant Val553Leu (human) (UniProt P20594); assay: cell-based or functional assay
[32] = target: NPR2 variant Val965Asp (human) (UniProt P20594); assay: cell-based or functional assay
NPR2 = assay: cGMP catchpoint assay of NPR2 variants in transfected HEK293 cells treated with 20 nM CNP; type: cell-based; design: key to Lable: loss-of-function (LoF); Gain-of-function (GoF); settings: for average phenotype: cGMP normalized to RedLuciferase and to WT = 1, HEK293, 20 nM CNP, 0.4 nM IBMX, at least 3 repeat experiments with 4 replicates each; for Lable: high-confidence variant class
Description: Described herein is an in-vitro assay (cGMP) to assess the activities of >260 NPR2 variants. NPR2 protein-altering variants have been identified in the UK Biobank study and described in Estrada et al. (Nat Commun. 2021 12 (1): 2224). NPR2-expression constructs were transfected into HEK293 cells and 3 days later cells were treated with […] IBMX and 20 nM CNP in serum-free DMEM prior to measuring cGMP levels. The cGMP catchpoint ELISA competition assay (Molecular Devices) was used to measure cGMP according to manufacturer recommendations. RedLuc was used as a transfection control (FIG. 8A).
The NPR2 alpha-fold structure was obtained from a recent alpha-fold publication (Jumper et al., Nature 596:583-589 (2021)). A list of phenotypically characterized “high-confidence” variants was generated (Table 4). Phenotype is calculated by determining levels of cGMP using a standard curve. This value to normalized to RedLuciferase (transfection control). This value is further normalized by setting WT to 1. Average value is calculated from at least 3 repeat experiments with 4 replicates each.

Molecule: CNP 53: active 53-amino acid peptide generated from pro-CNP by furin cleavage (DLRVDTKSRAAWARLLQEHPNARKYKGANKKGLSKGCFGLKLDRIGSMSGLGC; ends and bridges not checked; cysteine pairing not given here; UniProt P23582 74-126, looked up)
- lumbar vertebral nppc expression ([1]; 3 days continuous high dose intravenous infusion): significantly reducing
- plasma NTproCNP ([1]; females (n=6)): small decline
- plasma NTproCNP ([1]; male rats (n=6)): did not reduce

Molecule: Human Growth Hormone [Human Growth Hormone (HGH)]
- increase in NTproCNP, delta (plasma NTproCNP): 22%
- increase in NTproCNP, mean (plasma NTproCNP): 11 pmol/L

Molecule: C-type natriuretic peptide (CNP) (from UniProt P23582 105-126) (ligand)
- average phenotype (cGMP, normalized to RedLuciferase, WT set to 1) (relative to WT = 1) [2]: 0.0679
- average phenotype (cGMP, normalized to RedLuciferase, WT set to 1) (relative to WT = 1) [3]: 3.74
- average phenotype (cGMP, normalized to RedLuciferase, WT set to 1) (relative to WT = 1) [4]: 1.86
- average phenotype (cGMP, normalized to RedLuciferase, WT set to 1) (relative to WT = 1) [5]: 1.55 and 1.63
- average phenotype (cGMP, normalized to RedLuciferase, WT set to 1) (relative to WT = 1) [6]: 0.0595
- average phenotype (cGMP, normalized to RedLuciferase, WT set to 1) (relative to WT = 1) [7]: 0.0131
- average phenotype (cGMP, normalized to RedLuciferase, WT set to 1) (relative to WT = 1) [8]: 0.0295 and 0.0155
- average phenotype (cGMP, normalized to RedLuciferase, WT set to 1) (relative to WT = 1) [9]: 3
- average phenotype (cGMP, normalized to RedLuciferase, WT set to 1) (relative to WT = 1) [10]: 0.0708
- average phenotype (cGMP, normalized to RedLuciferase, WT set to 1) (relative to WT = 1) [11]: 1.7
- average phenotype (cGMP, normalized to RedLuciferase, WT set to 1) (relative to WT = 1) [12]: 0.0499
- average phenotype (cGMP, normalized to RedLuciferase, WT set to 1) (relative to WT = 1) [13]: 0.0886
- average phenotype (cGMP, normalized to RedLuciferase, WT set to 1) (relative to WT = 1) [14]: 2.78
- average phenotype (cGMP, normalized to RedLuciferase, WT set to 1) (relative to WT = 1) [15]: 0.0171
- average phenotype (cGMP, normalized to RedLuciferase, WT set to 1) (relative to WT = 1) [16]: 1.74
- average phenotype (cGMP, normalized to RedLuciferase, WT set to 1) (relative to WT = 1) [17]: 1.79
- average phenotype (cGMP, normalized to RedLuciferase, WT set to 1) (relative to WT = 1) [18]: 0.0364
- average phenotype (cGMP, normalized to RedLuciferase, WT set to 1) (relative to WT = 1) [19]: 0.0847
- average phenotype (cGMP, normalized to RedLuciferase, WT set to 1) (relative to WT = 1) [20]: 0.0243
- average phenotype (cGMP, normalized to RedLuciferase, WT set to 1) (relative to WT = 1) [21]: 0.0551
- average phenotype (cGMP, normalized to RedLuciferase, WT set to 1) (relative to WT = 1) [22]: 0.0144
- average phenotype (cGMP, normalized to RedLuciferase, WT set to 1) (relative to WT = 1) [23]: 1.69
- average phenotype (cGMP, normalized to RedLuciferase, WT set to 1) (relative to WT = 1) [24]: 1.49
- average phenotype (cGMP, normalized to RedLuciferase, WT set to 1) (relative to WT = 1) [25]: 0.0848
- average phenotype (cGMP, normalized to RedLuciferase, WT set to 1) (relative to WT = 1) [26]: 0.0567
- average phenotype (cGMP, normalized to RedLuciferase, WT set to 1) (relative to WT = 1) [27]: 0.0302
- average phenotype (cGMP, normalized to RedLuciferase, WT set to 1) (relative to WT = 1) [28]: 0.0106
- average phenotype (cGMP, normalized to RedLuciferase, WT set to 1) (relative to WT = 1) [29]: 0.0146
- average phenotype (cGMP, normalized to RedLuciferase, WT set to 1) (relative to WT = 1) [30]: 0.0288
- average phenotype (cGMP, normalized to RedLuciferase, WT set to 1) (relative to WT = 1) [31]: 1.52
- average phenotype (cGMP, normalized to RedLuciferase, WT set to 1) (relative to WT = 1) [32]: 0.0158

B1: His552Arg: NPR2 protein-altering variant, expression construct transfected into HEK293 cells (protein)
chain: RNLTLAVVLPEHNLSYAWAWPRVGPAVALAVEALGRALPVDLRFVSSELEGACSEYLAPLSAVDLKLYHDPDLLLGPGCVYPAASVARFASHWRLPLLTAGAVASGFSAKNDHYRTLVRTGPSAPKLGEFVVTLHGHFNWTARAALLYLDARTDDRPHYFTIEGVFEALQGSNLSVQHQVYAREPGGPEQATHFIRANGRIVYICGPLEMLHEILLQAQRENLTNGDYVFFYLDVFGESLRAGPTRATGRPWQDNRTREQAQALREAFQTVLVITYREPPNPEYQEFQNRLLIRAREDFGVELGPSLMNLIAGCFYDGILLYAEVLNETIQEGGTREDGLRIVEKMQGRRYHGVTGLVVMDKNNDRETDFVLWAMGDLDSGDFQPAAHYSGAEKQIWWTGRPIPWVKGAPPSDNPPCAFDLDDPSCDKTPLSTLAIVALGTGITFIMFGVSSFLIFRKLMLEKELASMLWRIRWEELQFGNSERYHKGAGSRLTLSLRGSSYGSLMTAHGKYQIFANTGHFKGNVVAIKRVNKKRIELTRQVLFELKHMRDVQFNHLTRFIGACIDPPNICIVTEYCPRGSLQDILENDSINLDWMFRYSLINDLVKGMAFLHNSIISSHGSLKSSNCVVDSRFVLKITDYGLASFRSTAEPDDSHALYAKKLWTAPELLSGNPLPTTGMQKADVYSFGIILQEIALRSGPFYLEGLDLSPKEIVQKVRNGQRPYFRPSIDRTQLNEELVLLMERCWAQDPAERPDFGQIKGFIRRFNKEGGTSILDNLLLRMEQYANNLEKLVEERTQAYLEEKRKAEALLYQILPHSVAEQLKRGETVQAEAFDSVTIYFSDIVGFTALSAESTPMQVVTLLNDLYTCFDAIIDNFDVYKVETIGDAYMVVSGLPGRNGQRHAPEIARMALALLDAVSSFRIRHRPHDQLRLRIGVHTGPVCAGVVGLKMPRYCLFGDTVNTASRMESNGQALKIHVSSTTKDALDELGCFQLELRGDVEMKGKGKMRTYWLLGERKGPPGLL
- average phenotype (NPR2): 1.794
- Lable (NPR2): GoF

B2: Arg263His: NPR2 protein-altering variant, expression construct transfected into HEK293 cells (protein)
chain: B1 chain with R241H, R530H
- average phenotype (NPR2): 1.863
- Lable (NPR2): GoF

B3: Glu359Ala: NPR2 protein-altering variant, expression construct transfected into HEK293 cells (protein)
chain: B1 chain with E337A, R530H
- average phenotype (NPR2): 2.998
- Lable (NPR2): GoF

B4: Ala59Thr: NPR2 protein-altering variant, expression construct transfected into HEK293 cells (protein)
chain: B1 chain with A37T, R530H
- average phenotype (NPR2): 3.735
- Lable (NPR2): GoF

B5: Thr377Asn: NPR2 protein-altering variant, expression construct transfected into HEK293 cells (protein)
chain: B1 chain with T355N, R530H
- average phenotype (NPR2): 0.01062
- Lable (NPR2): LoF

B6: Arg776Trp: NPR2 protein-altering variant, expression construct transfected into HEK293 cells (protein)
chain: B1 chain with R530H, R754W
- average phenotype (NPR2): 0.01312
- Lable (NPR2): LoF

B7: Lys367Glu: NPR2 protein-altering variant, expression construct transfected into HEK293 cells (protein)
chain: B1 chain with K345E, R530H
- average phenotype (NPR2): 0.01438
- Lable (NPR2): LoF

B8: Thr907Met: NPR2 protein-altering variant, expression construct transfected into HEK293 cells (protein)
chain: B1 chain with R530H, T885M
- average phenotype (NPR2): 0.01456
- Lable (NPR2): LoF
